Laboratory results: paper PMC3866529

Assays:
[1] = system: Cys; settings: cited from earlier work
[2] = target: Cys22 (UniProt position 23, FIKPTCPYCRR); settings: cited from earlier work
[3] = target: Cys22 (UniProt position 23, FIKPTCPFCRK); settings: cited from earlier work
[4] = target: Cys22 (UniProt position 23, FIKPTCPFARK); settings: cited from earlier work
[5] = target: Cys22 (UniProt position 23, FIKPTCPFSRK); settings: cited from earlier work
[6] = system: Cys31; test: chemical modification; settings: Pre-incubation temperature not stated; the HED activity assay was run at 25°C; not stated (100 mM buffer); 100 mM sodium citrate or phosphate buffers; DTT-reduced WT protein, no ligand
[7] = system: Cys23; test: chemical modification; settings: Pre-incubation temperature not stated; the HED activity assay was run at 25°C; not stated (100 mM buffer); 100 mM sodium citrate or phosphate buffers; DTT-reduced WT protein, no ligand
[8] = system: Cys37; test: chemical modification; settings: Pre-incubation temperature not stated; the HED activity assay was run at 25°C; not stated (100 mM buffer); 100 mM sodium citrate or phosphate buffers; DTT-reduced WT protein, no ligand
[9] = system: Cys27; test: chemical modification

Glutaredoxin 1 (CrGrx1) (Chlamydomonas reinhardtii)
pKa [1]: 3.9 ± 0.1

Glutaredoxin 1 (HsGrx1, thioltransferase) (Homo sapiens)
pKa [2]: 3.6

Glutaredoxin 1 (ScGrx1) (Saccharomyces cerevisiae)
pKa [1]: 3.2 to 4.0 ± 0.2

Glutaredoxin 2 (CrGrx2) (Chlamydomonas reinhardtii)
pKa [1]: 4.8 ± 0.1

Glutaredoxin 2 (HsGrx2) (Homo sapiens)
pKa [1]: 4.6

Glutaredoxin 2 (ScGrx2) (Saccharomyces cerevisiae)
pKa [1]: 3.1 to 3.5 ± 0.2

Glutaredoxin (pig liver thioltransferase) (Sus scrofa)
pKa [3]: 3.8

Glutaredoxin (pig liver thioltransferase) C25A (Sus scrofa; C25A)
pKa [4]: 5.9

Glutaredoxin (pig liver thioltransferase) C25S (Sus scrofa; C25S)
pKa [5]: 4.9

Glutaredoxin C1 (PtGrxC1) (Populus sp. (poplar; 'Pt' prefix, species not spelled out in the article))
pKa [6]: 5.3 ± 0.1

Glutaredoxin C2 (PtGrxC2) (Populus sp. (poplar; 'Pt' prefix, species not spelled out in the article))
pKa [7]: 5.0 ± 0.1

Glutaredoxin C3 (PtGrxC3) (Populus sp. (poplar; 'Pt' prefix, species not spelled out in the article))
pKa [8]: 4.6 ± 0.1

Glutaredoxin C4 (PtGrxC4) (Populus sp. (poplar; 'Pt' prefix, species not spelled out in the article))
pKa ([9]; Pre-incubation temperature not stated, the HED activity assay was run at 25°C, not stated (100 mM buffer), 100 mM sodium citrate or phosphate buffers, DTT-reduced WT protein, no ligand): 4.6 ± 0.1

Glutaredoxin S12 (PtGrxS12) (Populus sp. (poplar))
pKa ([9]; cited from earlier work): 3.9
